The results in this text go back to paper PMC10441670.

For data set [1], the system named is MHV68UNG (murine gammaherpesvirus 68). The data set can be described thus: fluorescence anisotropy. Particulars: N15 of strand 1 = abasic (AP) site made from U by UNG; G opposite. In general terms: In fluorescence polarisation assays a small probe gives low polarisation when free and higher when bound to something large.
In data set [2] the test system is MHV68UNGΔN-Ls (murine gammaherpesvirus 68 / mouse chimera). Nature of the data set: fluorescence anisotropy. Particulars: N15 of strand 1 = abasic (AP) site made from U by UNG; G opposite.

Broadly, the Kd is the concentration at which binding is half-saturated. The low end stands for higher affinity, the high end for lower affinity. With “AGAAAAGGGGAAAGNAAAGAGGAAAGGTGAGGAGGT / ACCTCCTCACCTTTCCTCTTTGCTTTCCCCTTTTCT [AP:G dsDNA (fluorescein)]”, the results for the Kd in data set [1] and in data set [2] were 680 nM and 751 nM, respectively.
